Results on 2 molecules are retold here after patent US20200283521A1 (GRANULAR THERAPEUTICS, published 2020).

Residue numbers refer to the chain shown, from its start.

For test [1], the target named is T1, cynomolgus monkey C-KIT-Fc (cynomolgus monkey).
T1 construct: also called cyno C-KIT-Fc
Nature of the test: direct ELISA at 1 µg/ml. A general note: An ELISA detects its analyte on a solid surface through an enzyme-linked reagent.

Test [2] has as its target T2, human C-KIT-Fc (human, UniProt P10721 26-524).
T2 construct: also called biotinylated human C-KIT-Fc; not shown: Fc part not described
Nature of the test: direct ELISA at 1 µg/ml.

Another test deals with T3, hLTBR-Fc (human, UniProt P36941).
T3 construct: Fc fusion; member of the panel m9
T3 sequence (P36941 28-227 limits assumed): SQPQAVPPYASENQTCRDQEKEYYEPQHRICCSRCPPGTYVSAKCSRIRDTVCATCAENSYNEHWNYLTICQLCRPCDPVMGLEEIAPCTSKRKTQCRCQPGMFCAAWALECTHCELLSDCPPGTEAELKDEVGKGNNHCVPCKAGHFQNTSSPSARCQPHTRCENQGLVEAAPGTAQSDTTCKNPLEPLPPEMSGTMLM
Nature of the test: direct ELISA on coated protein, IgG1.

The target of the next test is T4, hCD4 (human, UniProt P01730).
T4 construct: purified recombinant protein; member of the panel m9
Nature of the test: direct ELISA on coated protein, IgG1.

The next test addresses T5, hBAFFR-Fc (human, UniProt Q96RJ3).
T5 construct: Fc fusion; member of the panel m9
As to the kind of experiment: direct ELISA on coated protein, IgG1.

A further test deals with T6, hDR3-Fc (human, UniProt Q93038).
T6 construct: Fc fusion; member of the panel m9
T6 sequence (looked up): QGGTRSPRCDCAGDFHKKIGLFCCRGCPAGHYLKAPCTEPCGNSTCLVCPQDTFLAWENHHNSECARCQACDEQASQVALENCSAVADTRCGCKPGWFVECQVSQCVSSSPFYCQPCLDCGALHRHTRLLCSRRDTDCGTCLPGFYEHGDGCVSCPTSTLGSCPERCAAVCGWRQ
Nature of the test: direct ELISA on coated protein, IgG1.

A further test deals with T7, hEpCAM-Fc (human, UniProt P16422).
T7 construct: Fc fusion; member of the panel m9
T7 sequence (looked up): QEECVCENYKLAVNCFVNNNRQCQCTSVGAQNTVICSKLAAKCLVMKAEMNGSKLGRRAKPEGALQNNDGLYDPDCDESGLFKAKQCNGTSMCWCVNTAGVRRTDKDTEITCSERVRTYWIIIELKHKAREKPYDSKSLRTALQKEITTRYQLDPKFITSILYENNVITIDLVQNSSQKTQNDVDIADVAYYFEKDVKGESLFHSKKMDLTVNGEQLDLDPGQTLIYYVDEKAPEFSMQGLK
As to the kind of experiment: direct ELISA on coated protein, IgG1.

The target of another test is T8, hVCAM-Fc.
T8 construct: member of the panel m9
T8 chain: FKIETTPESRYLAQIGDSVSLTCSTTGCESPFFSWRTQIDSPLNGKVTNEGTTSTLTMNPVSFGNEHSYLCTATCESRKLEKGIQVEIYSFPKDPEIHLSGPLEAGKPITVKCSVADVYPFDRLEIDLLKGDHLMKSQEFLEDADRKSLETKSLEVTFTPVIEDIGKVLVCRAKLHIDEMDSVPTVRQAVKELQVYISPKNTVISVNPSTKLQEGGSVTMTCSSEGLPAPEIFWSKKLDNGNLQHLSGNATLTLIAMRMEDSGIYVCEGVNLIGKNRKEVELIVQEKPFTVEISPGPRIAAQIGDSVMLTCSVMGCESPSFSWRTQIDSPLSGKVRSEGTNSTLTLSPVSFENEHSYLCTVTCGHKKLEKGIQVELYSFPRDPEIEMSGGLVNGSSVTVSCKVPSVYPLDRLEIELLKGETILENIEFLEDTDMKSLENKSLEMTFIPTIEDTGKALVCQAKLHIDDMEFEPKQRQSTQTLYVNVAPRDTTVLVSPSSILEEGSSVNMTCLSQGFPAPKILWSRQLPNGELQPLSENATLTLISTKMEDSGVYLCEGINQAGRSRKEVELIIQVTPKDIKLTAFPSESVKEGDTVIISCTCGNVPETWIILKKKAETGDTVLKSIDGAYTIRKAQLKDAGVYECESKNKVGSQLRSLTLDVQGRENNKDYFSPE
Nature of the test: direct ELISA on coated protein, IgG1.

The target of the next test is T9, hCMET-Fc (The natural ectodomain is cleaved by furin after residue 307 into disulfide-linked alpha and beta chains. It is given here as one continuous stretch.).
T9 construct: member of the panel m9
T9 chain: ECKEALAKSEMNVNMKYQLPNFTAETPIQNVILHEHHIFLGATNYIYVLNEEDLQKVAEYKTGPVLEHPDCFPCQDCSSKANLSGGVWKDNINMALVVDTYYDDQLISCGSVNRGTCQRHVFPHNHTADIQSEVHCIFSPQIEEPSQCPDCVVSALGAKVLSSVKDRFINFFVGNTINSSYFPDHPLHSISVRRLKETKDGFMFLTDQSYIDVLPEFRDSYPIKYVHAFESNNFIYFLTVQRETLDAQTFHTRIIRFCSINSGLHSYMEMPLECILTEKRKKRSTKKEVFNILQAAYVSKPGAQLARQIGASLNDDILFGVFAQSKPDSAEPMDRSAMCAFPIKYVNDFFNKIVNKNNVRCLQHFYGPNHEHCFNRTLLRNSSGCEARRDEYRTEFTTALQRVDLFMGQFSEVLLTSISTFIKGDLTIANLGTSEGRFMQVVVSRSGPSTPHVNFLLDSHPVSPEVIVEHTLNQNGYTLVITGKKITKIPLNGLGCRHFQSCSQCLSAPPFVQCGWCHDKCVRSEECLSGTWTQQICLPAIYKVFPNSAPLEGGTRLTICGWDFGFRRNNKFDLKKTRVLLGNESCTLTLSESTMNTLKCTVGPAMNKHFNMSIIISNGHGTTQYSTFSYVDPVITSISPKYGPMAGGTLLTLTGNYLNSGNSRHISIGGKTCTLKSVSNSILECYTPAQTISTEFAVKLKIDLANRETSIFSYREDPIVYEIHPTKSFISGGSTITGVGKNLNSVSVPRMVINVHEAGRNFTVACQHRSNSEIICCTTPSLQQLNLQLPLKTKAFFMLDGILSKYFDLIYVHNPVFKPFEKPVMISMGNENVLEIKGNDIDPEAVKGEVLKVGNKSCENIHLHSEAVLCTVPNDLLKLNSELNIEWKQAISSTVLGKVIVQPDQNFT
Nature of the test: direct ELISA on coated protein, IgG1.

For the next test, the target named is T10, hVCAM-1 (human, UniProt P19320).
T10 construct: purified recombinant protein; member of the panel m9
T10 sequence (looked up): T8 chain
Nature of the test: direct ELISA on coated protein, IgG1.

A further test addresses T11, hTWEAK-Fc (human, UniProt O43508).
T11 construct: Fc fusion; member of the panel m9
T11 sequence (looked up): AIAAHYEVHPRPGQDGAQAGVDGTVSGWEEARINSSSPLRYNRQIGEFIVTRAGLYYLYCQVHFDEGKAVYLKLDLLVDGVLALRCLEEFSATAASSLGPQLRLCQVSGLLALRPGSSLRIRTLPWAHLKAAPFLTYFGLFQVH
As to the kind of experiment: direct ELISA on coated protein, IgG1.

Another test has as its target T12, hOX40-Fc.
T12 construct: member of the panel m9
T12 chain: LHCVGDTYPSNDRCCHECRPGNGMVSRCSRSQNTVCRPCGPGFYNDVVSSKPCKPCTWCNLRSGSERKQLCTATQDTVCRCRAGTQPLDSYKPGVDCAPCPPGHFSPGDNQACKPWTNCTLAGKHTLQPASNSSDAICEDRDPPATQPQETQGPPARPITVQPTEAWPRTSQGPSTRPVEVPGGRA
As to the kind of experiment: direct ELISA on coated protein, IgG1.

The target of another test is T13, h4-1BB-Fc.
T13 construct: member of the panel m9
T13 sequence (chain, as listed by the source limits assumed): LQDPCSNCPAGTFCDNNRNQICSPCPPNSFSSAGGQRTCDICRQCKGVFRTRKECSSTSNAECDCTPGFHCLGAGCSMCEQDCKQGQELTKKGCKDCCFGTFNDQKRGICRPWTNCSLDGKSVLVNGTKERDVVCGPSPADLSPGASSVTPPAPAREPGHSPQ
Nature of the test: direct ELISA on coated protein, IgG1.

A further test addresses T14, hICAM-1-Fc (human, UniProt P05362).
T14 construct: Fc fusion; member of the panel m9
As to the kind of experiment: direct ELISA on coated protein, IgG1.

The next test addresses T15, hDR6-Fc (human, UniProt O75509).
T15 construct: Fc fusion; member of the panel m9
T15 sequence (looked up): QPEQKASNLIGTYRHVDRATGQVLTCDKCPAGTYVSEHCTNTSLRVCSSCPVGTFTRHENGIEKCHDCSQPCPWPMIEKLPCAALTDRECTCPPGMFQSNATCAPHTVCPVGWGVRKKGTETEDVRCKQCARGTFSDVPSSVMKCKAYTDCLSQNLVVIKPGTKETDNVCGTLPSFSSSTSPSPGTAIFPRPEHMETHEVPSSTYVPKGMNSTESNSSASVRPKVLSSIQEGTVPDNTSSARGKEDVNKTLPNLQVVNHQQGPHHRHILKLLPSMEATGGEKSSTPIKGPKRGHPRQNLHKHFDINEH
As to the kind of experiment: direct ELISA on coated protein, IgG1.

Test [3] has as its target T1, cynomolgus monkey C-KIT-Fc. Nature of the test: HTRF competition vs Tb-h37M IgG1. (In general: Time-resolved FRET reads energy transfer from a long-lived donor to a nearby acceptor.)
Test [4] addresses T2, human C-KIT-Fc. Nature of the test: HTRF competition vs Tb-h37M IgG1.
For test [5], the target named is T16, human C-KIT, full length, on cells (human, UniProt P10721 26-976).
T16 construct: full-length cDNA stably transfected in CHO-K1; also used here for endogenous C-KIT of TF-1 cells; also called human C-KIT+ CHO-K1 cells; C-KIT on TF-1 cells
Nature of the test: flow cytometry, CHO-K1 transfectants.

Test [6] addresses T2, human C-KIT-Fc. As to the kind of experiment: direct titration ELISA on coated C-KIT-Fc, IgG1 format.

T14 sequence (P05362 28-480 limits assumed): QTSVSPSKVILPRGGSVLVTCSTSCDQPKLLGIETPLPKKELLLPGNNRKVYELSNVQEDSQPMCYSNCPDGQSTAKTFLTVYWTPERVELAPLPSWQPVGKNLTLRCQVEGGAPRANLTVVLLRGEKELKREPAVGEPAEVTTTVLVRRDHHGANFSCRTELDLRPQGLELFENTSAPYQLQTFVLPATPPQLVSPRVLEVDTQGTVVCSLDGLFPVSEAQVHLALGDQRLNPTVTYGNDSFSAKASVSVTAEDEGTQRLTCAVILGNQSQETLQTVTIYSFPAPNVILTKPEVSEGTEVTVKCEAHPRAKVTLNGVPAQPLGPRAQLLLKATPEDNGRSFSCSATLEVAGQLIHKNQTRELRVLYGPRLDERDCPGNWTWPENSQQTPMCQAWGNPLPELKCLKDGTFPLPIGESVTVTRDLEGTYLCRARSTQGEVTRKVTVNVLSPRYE
T5 sequence (Q96RJ3 7-71 limits assumed): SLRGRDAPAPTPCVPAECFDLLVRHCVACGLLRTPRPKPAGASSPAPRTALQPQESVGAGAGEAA

B1: E-C7 (antibody, IgG1, V domains shown)
VH: QVQLVQSGAEVKKPGASVKVSCKASGYTFTDYYMNWVRQAPGQGLEWMGRIYPGSGNTYYAQKFQGRVTMTRDTSTSTVYMELSSLRSEDTAVYYCARGVYYYDYWGQGTLVTVSS
VL: DIQMTQSPSSLSASVGDRVTITCRASQGIRTNLAWFQQKPGKAPKSLIYSASSLQSGVPSRFSGSGSGTDFTLTISSLQPEDFATYYCQQYNSYPRTFGGGTKVEIK
notes: IgG1; also called C-KIT-E-C7
For orientation: IC50 means the concentration at which inhibition is half-maximal. Regarding B1, the OD450 nm is over 2 OD450 nm in test [1] and over 1.8 OD450 nm with human C-KIT-Fc [2]. Besides, the binding result with hLTBR-Fc, with hCD4, with hBAFFR-Fc, with hDR3-Fc, with hEpCAM-Fc and with hVCAM-Fc was “no binding (tested: 1 µg/ml)” each time. In addition, the binding result with hCMET-Fc, with hVCAM-1, with hTWEAK-Fc, with hOX40-Fc, in the test with h4-1BB-Fc and in the test with hICAM-1-Fc was “no binding (tested: 1 µg/ml)” throughout. For the same molecule, in the test with hDR6-Fc, the binding result is “no binding (tested: 1 µg/ml)”. Moreover, the values for the half-inhibitory concentration (IC50) (in [3]; with human C-KIT-Fc [4]) were 0.051 µg/mL and 0.028 µg/mL, respectively.

B2: MH5.33 (antibody, IgG1, V domains shown)
VH: B1 VH with D31N, G54A, Y101W
VL: B1 VL with S50A, N92A, S93N
notes: IgG1
For the molecule B2, the binding result in test [5] was “binds”; with human C-KIT-Fc [6] it was “no binding (tested: 10 µg/ml)”.
